Here are results for two substances from publication PMC11372557.

In assay [1] the target is RbdA-DGC-PDE (RbdA 376-797), linked cyclase-phosphodiesterase double domain of RbdA (Pseudomonas aeruginosa strain PAO1). The assay is described as follows: SEC; apparent molecular weight on a calibrated size exclusion system; purified proteins in solution. (SEC sorts molecules by how far they enter the pores of the column.)
The target in assay [2] is RbdA-PDE (RbdA 549-797), phosphodiesterase domain of the regulator of biofilm dispersal RbdA (Pseudomonas aeruginosa strain PAO1). The description is as above.

By stoichiometry N is commonly meant the number of molecules, sites or subunits per partner or assembly.

Turning to “RbdA-DGC-PDE (RbdA 376-797), linked cyclase-phosphodiesterase double domain of RbdA (domain or fragment)”, in assay [1], the stoichiometry N turned out to be 2.
For “RbdA-PDE (RbdA 549-797), phosphodiesterase domain of the regulator of biofilm dispersal RbdA (domain or fragment)”, the stoichiometry N in assay [2] amounted to 2.
